Data reported in publication PMC7585203 (Epigenetics & Chromatin, 2020).
Numbering of substitutions follows the chain as printed. Where no end group is shown, it is not given here.

Legend:
Test in all cases: fluorescence polarisation; FAM-labelled peptide with GST-tagged domains or MBP-tagged full-length UHRF1; as described in ref. 4, plotted as change in anisotropy
Conditions in all cases: both partners purified
[1] = target: T1, GST-tagged UHRF1 tandem Tudor domain (TTD, a.a. 125–285) ( (printed UniProt entry is …, UniProt Q96T88 125-285))
T1 construct: also called UHRF1 TTD; source: recombinant GST fusion
T1 sequence (looked up): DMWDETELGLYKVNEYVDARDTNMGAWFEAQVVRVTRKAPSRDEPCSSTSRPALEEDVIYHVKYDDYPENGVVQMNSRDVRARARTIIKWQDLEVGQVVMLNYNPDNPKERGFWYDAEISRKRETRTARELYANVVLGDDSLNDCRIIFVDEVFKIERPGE

[2] = target: T2, GST-tagged UHRF1 TTD–PHD R295A/R296A ( (printed UniProt entry is …, UniProt Q96T88 125-364, R295A | R296A))
T2 construct: also called mutation of L2 (R295A/R296A); TTD–PHD mutant; source: recombinant GST fusion
T2 sequence (looked up): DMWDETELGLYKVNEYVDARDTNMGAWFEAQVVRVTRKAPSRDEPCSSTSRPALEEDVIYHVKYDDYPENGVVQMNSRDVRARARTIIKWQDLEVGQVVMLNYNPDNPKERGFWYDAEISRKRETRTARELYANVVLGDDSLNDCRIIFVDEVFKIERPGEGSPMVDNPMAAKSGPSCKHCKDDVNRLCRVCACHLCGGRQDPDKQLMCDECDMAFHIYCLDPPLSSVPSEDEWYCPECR

[3] = target: T3, UHRF1 full-length (a.a. 1–793), MBP fusion ( (printed UniProt entry is …, UniProt Q96T88 1-793))
T3 construct: also called recombinant full-length UHRF1; full-length UHRF1; not shown: MBP, N-terminal, kept
T3 sequence (looked up): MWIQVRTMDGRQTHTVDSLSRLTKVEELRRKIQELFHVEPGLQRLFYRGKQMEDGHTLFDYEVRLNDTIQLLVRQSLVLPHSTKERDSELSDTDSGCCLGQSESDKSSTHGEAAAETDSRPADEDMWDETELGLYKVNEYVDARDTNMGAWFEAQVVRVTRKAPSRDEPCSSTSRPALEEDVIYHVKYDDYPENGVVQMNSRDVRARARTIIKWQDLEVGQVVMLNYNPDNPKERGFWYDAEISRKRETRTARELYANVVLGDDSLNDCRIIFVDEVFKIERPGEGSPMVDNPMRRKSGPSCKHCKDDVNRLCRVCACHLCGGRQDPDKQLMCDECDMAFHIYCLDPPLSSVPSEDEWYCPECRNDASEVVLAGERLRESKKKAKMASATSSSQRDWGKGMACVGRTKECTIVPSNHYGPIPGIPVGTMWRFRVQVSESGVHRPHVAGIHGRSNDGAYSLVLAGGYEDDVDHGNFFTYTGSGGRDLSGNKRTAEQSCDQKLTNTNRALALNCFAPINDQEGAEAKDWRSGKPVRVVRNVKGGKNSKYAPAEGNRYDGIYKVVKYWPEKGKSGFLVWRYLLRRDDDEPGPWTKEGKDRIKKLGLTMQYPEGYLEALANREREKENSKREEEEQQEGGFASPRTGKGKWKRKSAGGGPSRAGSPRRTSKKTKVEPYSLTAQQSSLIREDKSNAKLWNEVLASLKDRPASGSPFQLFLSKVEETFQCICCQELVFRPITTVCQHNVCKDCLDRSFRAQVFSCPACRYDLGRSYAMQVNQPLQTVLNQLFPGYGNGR

[4] = target: T4, GST-tagged UHRF1 TTD–PHD S298E ( (printed UniProt entry is …, UniProt Q96T88 125-364, S298E))
T4 construct: also called phospho-mimetic mutation in L2; source: recombinant GST fusion
T4 sequence (looked up): T2 sequence (looked up) with A171R, A172R, S174E

B1: FAM-LIG1(118–130)K126me2 peptide (peptide)
peptide: {FAM}-IPKRRTARK(Me2)QLPK
modifications: not fully specified (C-terminus); printed as FAM-LIG1(118–130)K126me2 peptide
notes: DNA ligase 1 (LIG1), residues 118-130; also called FAM-LIG1K126me2; LIG1K126me2 peptide; source: bought: GenScript (synthetic peptide)
- Kd [1]: 30 to 80 nM
- binding result [2]: binds
- Kd [3]: 41 nM
- binding result [4]: binds
